Experimental data: US20190359937A1 (INNOVATIVE TARGETING SOLUTIONS, published 2019)

Assays:
[1] = biological target: T1, HER2 (as used for the affinity measurement) (UniProt P04626 23-652, limits assumed); experiment: affinity of the antibody for HER2; estimated to be several hundred nM, method not stated for this antibody
[2] = biological target: T1, HER2 (as used for the affinity …); experiment: Biacore, antibody against HER2; format not stated

Binder | Kd [1] [nM] | Kd [2] [nM]
anti-HER2 antibody ITS001-V928 (antibody, V domains shown, The KD is told of the antibody before it was made into the IgG-TNFR1 receptor; also called ITS001-V928-based antibody; antibody of C644) VH: QVQLVQSGAEVKKPGASVKVSCKASGYTFTSYGISWVRQAPGQGLEWMGWISAYNGNTNYAQKLQGRVTMTTDTSTSTAYMELRSLRSDDTAVYYCARELAYDAFDIWGQGTMVTVSS VL: not shown | > 200 | –
anti-HER2 antibody ITS001-V737 (antibody, V domains shown, The KD by Biacore is told of the antibody before it was made into the IgG-TNFR1 receptor; also called ITS001-V737-based antibody; antibody of C645) VH: QVQLVQSGAEVKKPGASVKVSCKASGYTFTSYGISWVRQAPGQGLEWMGWISAYNGNTNYAQKLQGRVTMTTDTSTSTAYMELRSLRSDDTAVYYCARELAYDAFDIWGQGTMVTVSS VL: DIQMTQSPSSLSASVGDRVTITCRASQSISSYLNWYQQKPGKAPKLLIYAASSQAGLSLQSGVPSRFSGSGSGTDFTLTISSLQPEDFATYYCQQSYSTPLTFGGGTKVEIKR | – | 107
